Data taken from patent publication US20220062341A1 (KIRIN, published 2022).

Each binder was assayed against CD3 subunits (CD3E, CD3G, CD3D, CD3Z) (human, UniProt P07766 23-207; P09693 23-182; P04234 22-171; P20963 22-164) (assay: cell-based or functional assay).
Sequence of CD3 subunits (CD3E, CD3G, CD3D, CD3Z) (P07766 23-207, chain 1 of 4): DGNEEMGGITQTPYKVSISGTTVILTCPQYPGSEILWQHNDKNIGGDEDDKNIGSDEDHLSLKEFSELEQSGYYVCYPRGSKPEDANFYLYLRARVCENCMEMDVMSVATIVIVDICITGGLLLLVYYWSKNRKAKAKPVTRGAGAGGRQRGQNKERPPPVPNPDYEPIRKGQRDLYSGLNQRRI
Sequence of CD3 subunits (CD3E, CD3G, CD3D, CD3Z) (P09693 23-182, chain 2 of 4): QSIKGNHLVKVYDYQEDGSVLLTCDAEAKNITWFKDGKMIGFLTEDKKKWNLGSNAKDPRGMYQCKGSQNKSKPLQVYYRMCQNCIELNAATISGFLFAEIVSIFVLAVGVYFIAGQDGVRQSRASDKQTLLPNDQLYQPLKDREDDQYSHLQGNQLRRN
Sequence of CD3 subunits (CD3E, CD3G, CD3D, CD3Z) (P04234 22-171, chain 3 of 4): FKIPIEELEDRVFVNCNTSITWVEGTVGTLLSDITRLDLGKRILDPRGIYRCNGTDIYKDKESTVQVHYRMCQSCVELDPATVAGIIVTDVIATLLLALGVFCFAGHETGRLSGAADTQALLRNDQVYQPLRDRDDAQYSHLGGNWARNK
Sequence of CD3 subunits (CD3E, CD3G, CD3D, CD3Z) (P20963 22-164, chain 4 of 4): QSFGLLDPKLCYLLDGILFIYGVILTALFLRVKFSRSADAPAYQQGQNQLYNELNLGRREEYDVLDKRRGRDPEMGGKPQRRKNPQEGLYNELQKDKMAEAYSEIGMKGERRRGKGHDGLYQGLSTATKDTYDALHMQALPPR

Binder	expression of CD3 (CD3-positive proportion), cells differentiated from iPS-derived HPCs (FF-WJs524), Day 21	CD3-recruiting activity (CD3-positive proportion, N=3), CD3-stably expressing 293T cells
full-length TCR (ba1) (TCR) MLSLLLLLLGLGSVFSAVISQKPSRDICQRGTSLTIQCQVDSQVTMMFWYRQQPGQSLTLIATANQGSEATYESGFVIDKFPISRPNLTFSTLTVSNMSPEDSSIYLCSVDGQGNTGELFFGEGSRLTVLEDLKNVFPPEVAVFEPSEAEISHTQKATLVCLATGFYPDHVELSWWVNGKEVHSGVSTDPQPLKEQPALNDSRYCLSSRLRVSATFWQNPRNHFRCQVQFYGLSENDEWTQDRAKPVTQIVSAEAWGRADCGFTSESYQQGVLSATILYEILLGKATLYAVLVSALVLMAMVKRKDSRGSGSGEGRGSLLTCGDVEENPGPMACPGFLWALVISTCLEFSMAQTVTQSQPEMSVQEAETVTLSCTYDTSESDYYLFWYKQPPSRQMILVIRQEAYKQQNATENRFSVNFQKAAKSFSLKISDSQLGDAAMYFCAYWSNNNARLMFGDGTQLVVKPNIQNPDPAVYQLRDSKSSDKSVCLFTDFDSQTNVSQSKDSDVYITDKTVLDMRSMDFKSNSAVAWSNKSDFACANAFNNSIIPEDTFFPSPESSCDVKLVEKSFETDTNLNFQNLSVIGFRILLLKVAGFNLLMTLRLWSS	99.8%	
modified TCR ba2 (TCR) TCR alpha: NIQNPDPAVYQLRDSKSSDKSVCLFTDFDSQTNVSQSKDSDVYITDKTVLDMRSMDFKSNSAVAWSNKSDFACANAFNNSIIPEDTFFPSPESSCDVKLVEKSFETDTNLNFQNLSVIGFRILLLKVAGFNLLMTLRLWSS TCR beta: EDLKNVFPPEVAVFEPSEAEISHTQKATLVCLATGFYPDHVELSWWVNGKEVHSGVSTDPQPLKEQPALNDSRYCLSSRLRVSATFWQNPRNHFRCQVQFYGLSENDEWTQDRAKPVTQIVSAEAWGRADCGFTSESYQQGVLSATILYEILLGKATLYAVLVSALVLMAMVKRKDSRG	50.4%	
modified TCR consisting of β12 and α7 (TCR) TCR alpha: SNKSDFACANAFNNSIIPEDTFFPSPESSCDVKLVEKSFETDTNLNFQNLSVIGFRILLLKVAGFNLLMTLRLWSS TCR beta: AKPVTQIVSAEAWGRADCGFTSESYQQGVLSATILYEILLGKATLYAVLVSALVLMAMVKRKDSRG		≥ 20%
modified TCR consisting of β12 and α8 (TCR) TCR alpha: CANAFNNSIIPEDTFFPSPESSCDVKLVEKSFETDTNLNFQNLSVIGFRILLLKVAGFNLLMTLRLWSS TCR beta: AKPVTQIVSAEAWGRADCGFTSESYQQGVLSATILYEILLGKATLYAVLVSALVLMAMVKRKDSRG		≥ 20%
modified TCR consisting of β12 and α9 (TCR) TCR alpha: FNNSIIPEDTFFPSPESSCDVKLVEKSFETDTNLNFQNLSVIGFRILLLKVAGFNLLMTLRLWSS TCR beta: AKPVTQIVSAEAWGRADCGFTSESYQQGVLSATILYEILLGKATLYAVLVSALVLMAMVKRKDSRG		≥ 20%
modified TCR consisting of β12 and α10 (TCR) TCR alpha: IPEDTFFPSPESSCDVKLVEKSFETDTNLNFQNLSVIGFRILLLKVAGFNLLMTLRLWSS TCR beta: AKPVTQIVSAEAWGRADCGFTSESYQQGVLSATILYEILLGKATLYAVLVSALVLMAMVKRKDSRG		≥ 20%

What follows are binders tested against CD3E (human, UniProt P07766 23-207) (assay: cell-based or functional assay).
Sequence of CD3E (P07766 23-207): as the sequence (P07766 23-207, chain 1 of 4) above

Binder	CD3E-positive proportion [%] (Avg, n = 2), CD3-stably expressing 293T cells
full-length TCR (ba1) (TCR) MLSLLLLLLGLGSVFSAVISQKPSRDICQRGTSLTIQCQVDSQVTMMFWYRQQPGQSLTLIATANQGSEATYESGFVIDKFPISRPNLTFSTLTVSNMSPEDSSIYLCSVDGQGNTGELFFGEGSRLTVLEDLKNVFPPEVAVFEPSEAEISHTQKATLVCLATGFYPDHVELSWWVNGKEVHSGVSTDPQPLKEQPALNDSRYCLSSRLRVSATFWQNPRNHFRCQVQFYGLSENDEWTQDRAKPVTQIVSAEAWGRADCGFTSESYQQGVLSATILYEILLGKATLYAVLVSALVLMAMVKRKDSRGSGSGEGRGSLLTCGDVEENPGPMACPGFLWALVISTCLEFSMAQTVTQSQPEMSVQEAETVTLSCTYDTSESDYYLFWYKQPPSRQMILVIRQEAYKQQNATENRFSVNFQKAAKSFSLKISDSQLGDAAMYFCAYWSNNNARLMFGDGTQLVVKPNIQNPDPAVYQLRDSKSSDKSVCLFTDFDSQTNVSQSKDSDVYITDKTVLDMRSMDFKSNSAVAWSNKSDFACANAFNNSIIPEDTFFPSPESSCDVKLVEKSFETDTNLNFQNLSVIGFRILLLKVAGFNLLMTLRLWSS	88.7%
modified TCR ba10 (TCR) TCR alpha: IPEDTFFPSPESSCDVKLVEKSFETDTNLNFQNLSVIGFRILLLKVAGFNLLMTLRLWSS TCR beta: EDLKNVFPPEVAVFEPSEAEISHTQKATLVCLATGFYPDHVELSWWVNGKEVHSGVSTDPQPLKEQPALNDSRYCLSSRLRVSATFWQNPRNHFRCQVQFYGLSENDEWTQDRAKPVTQIVSAEAWGRADCGFTSESYQQGVLSATILYEILLGKATLYAVLVSALVLMAMVKRKDSRG	86.5%
modified TCR ba11 (TCR) TCR alpha: SVCLFTDFDSQTNVSQSKDSDVYITDKTVLDMRSMDFKSNSAVAWSNKSDFACANAFNNSIIPEDTFFPSPESSCDVKLVEKSFETDTNLNFQNLSVIGFRILLLKVAGFNLLMTLRLWSS TCR beta: ATLVCLATGFYPDHVELSWWVNGKEVHSGVSTDPQPLKEQPALNDSRYCLSSRLRVSATFWQNPRNHFRCQVQFYGLSENDEWTQDRAKPVTQIVSAEAWGRADCGFTSESYQQGVLSATILYEILLGKATLYAVLVSALVLMAMVKRKDSRG	83.2%
modified TCR ba12 (TCR) TCR alpha: DVYITDKTVLDMRSMDFKSNSAVAWSNKSDFACANAFNNSIIPEDTFFPSPESSCDVKLVEKSFETDTNLNFQNLSVIGFRILLLKVAGFNLLMTLRLWSS TCR beta: ATLVCLATGFYPDHVELSWWVNGKEVHSGVSTDPQPLKEQPALNDSRYCLSSRLRVSATFWQNPRNHFRCQVQFYGLSENDEWTQDRAKPVTQIVSAEAWGRADCGFTSESYQQGVLSATILYEILLGKATLYAVLVSALVLMAMVKRKDSRG	51%
modified TCR ba13 (TCR) TCR alpha: KSNSAVAWSNKSDFACANAFNNSIIPEDTFFPSPESSCDVKLVEKSFETDTNLNFQNLSVIGFRILLLKVAGFNLLMTLRLWSS TCR beta: ATLVCLATGFYPDHVELSWWVNGKEVHSGVSTDPQPLKEQPALNDSRYCLSSRLRVSATFWQNPRNHFRCQVQFYGLSENDEWTQDRAKPVTQIVSAEAWGRADCGFTSESYQQGVLSATILYEILLGKATLYAVLVSALVLMAMVKRKDSRG	40.4%
modified TCR ba14 (TCR) TCR alpha: IPEDTFFPSPESSCDVKLVEKSFETDTNLNFQNLSVIGFRILLLKVAGFNLLMTLRLWSS TCR beta: ATLVCLATGFYPDHVELSWWVNGKEVHSGVSTDPQPLKEQPALNDSRYCLSSRLRVSATFWQNPRNHFRCQVQFYGLSENDEWTQDRAKPVTQIVSAEAWGRADCGFTSESYQQGVLSATILYEILLGKATLYAVLVSALVLMAMVKRKDSRG	46.4%
modified TCR ba15 (TCR) TCR alpha: SVCLFTDFDSQTNVSQSKDSDVYITDKTVLDMRSMDFKSNSAVAWSNKSDFACANAFNNSIIPEDTFFPSPESSCDVKLVEKSFETDTNLNFQNLSVIGFRILLLKVAGFNLLMTLRLWSS TCR beta: AKPVTQIVSAEAWGRADCGFTSESYQQGVLSATILYEILLGKATLYAVLVSALVLMAMVKRKDSRG	56.5%
modified TCR ba16 (TCR) TCR alpha: DVYITDKTVLDMRSMDFKSNSAVAWSNKSDFACANAFNNSIIPEDTFFPSPESSCDVKLVEKSFETDTNLNFQNLSVIGFRILLLKVAGFNLLMTLRLWSS TCR beta: AKPVTQIVSAEAWGRADCGFTSESYQQGVLSATILYEILLGKATLYAVLVSALVLMAMVKRKDSRG	70.7%
modified TCR ba17 (TCR) TCR alpha: KSNSAVAWSNKSDFACANAFNNSIIPEDTFFPSPESSCDVKLVEKSFETDTNLNFQNLSVIGFRILLLKVAGFNLLMTLRLWSS TCR beta: AKPVTQIVSAEAWGRADCGFTSESYQQGVLSATILYEILLGKATLYAVLVSALVLMAMVKRKDSRG	81.9%
modified TCR ba18 (TCR) TCR alpha: IPEDTFFPSPESSCDVKLVEKSFETDTNLNFQNLSVIGFRILLLKVAGFNLLMTLRLWSS TCR beta: AKPVTQIVSAEAWGRADCGFTSESYQQGVLSATILYEILLGKATLYAVLVSALVLMAMVKRKDSRG	89.5%
modified TCR ba2 (TCR) TCR alpha: NIQNPDPAVYQLRDSKSSDKSVCLFTDFDSQTNVSQSKDSDVYITDKTVLDMRSMDFKSNSAVAWSNKSDFACANAFNNSIIPEDTFFPSPESSCDVKLVEKSFETDTNLNFQNLSVIGFRILLLKVAGFNLLMTLRLWSS TCR beta: EDLKNVFPPEVAVFEPSEAEISHTQKATLVCLATGFYPDHVELSWWVNGKEVHSGVSTDPQPLKEQPALNDSRYCLSSRLRVSATFWQNPRNHFRCQVQFYGLSENDEWTQDRAKPVTQIVSAEAWGRADCGFTSESYQQGVLSATILYEILLGKATLYAVLVSALVLMAMVKRKDSRG	84.5%
modified TCR ba3 (TCR) TCR alpha: NIQNPDPAVYQLRDSKSSDKSVCLFTDFDSQTNVSQSKDSDVYITDKTVLDMRSMDFKSNSAVAWSNKSDFACANAFNNSIIPEDTFFPSPESSCDVKLVEKSFETDTNLNFQNLSVIGFRILLLKVAGFNLLMTLRLWSS TCR beta: ATLVCLATGFYPDHVELSWWVNGKEVHSGVSTDPQPLKEQPALNDSRYCLSSRLRVSATFWQNPRNHFRCQVQFYGLSENDEWTQDRAKPVTQIVSAEAWGRADCGFTSESYQQGVLSATILYEILLGKATLYAVLVSALVLMAMVKRKDSRG	82.3%
modified TCR ba5 (TCR) TCR alpha: NIQNPDPAVYQLRDSKSSDKSVCLFTDFDSQTNVSQSKDSDVYITDKTVLDMRSMDFKSNSAVAWSNKSDFACANAFNNSIIPEDTFFPSPESSCDVKLVEKSFETDTNLNFQNLSVIGFRILLLKVAGFNLLMTLRLWSS TCR beta: FRCQVQFYGLSENDEWTQDRAKPVTQIVSAEAWGRADCGFTSESYQQGVLSATILYEILLGKATLYAVLVSALVLMAMVKRKDSRG	48.4%
modified TCR ba6 (TCR) TCR alpha: NIQNPDPAVYQLRDSKSSDKSVCLFTDFDSQTNVSQSKDSDVYITDKTVLDMRSMDFKSNSAVAWSNKSDFACANAFNNSIIPEDTFFPSPESSCDVKLVEKSFETDTNLNFQNLSVIGFRILLLKVAGFNLLMTLRLWSS TCR beta: AKPVTQIVSAEAWGRADCGFTSESYQQGVLSATILYEILLGKATLYAVLVSALVLMAMVKRKDSRG	47.6%
modified TCR ba7 (TCR) TCR alpha: SVCLFTDFDSQTNVSQSKDSDVYITDKTVLDMRSMDFKSNSAVAWSNKSDFACANAFNNSIIPEDTFFPSPESSCDVKLVEKSFETDTNLNFQNLSVIGFRILLLKVAGFNLLMTLRLWSS TCR beta: EDLKNVFPPEVAVFEPSEAEISHTQKATLVCLATGFYPDHVELSWWVNGKEVHSGVSTDPQPLKEQPALNDSRYCLSSRLRVSATFWQNPRNHFRCQVQFYGLSENDEWTQDRAKPVTQIVSAEAWGRADCGFTSESYQQGVLSATILYEILLGKATLYAVLVSALVLMAMVKRKDSRG	88.6%
modified TCR ba8 (TCR) TCR alpha: DVYITDKTVLDMRSMDFKSNSAVAWSNKSDFACANAFNNSIIPEDTFFPSPESSCDVKLVEKSFETDTNLNFQNLSVIGFRILLLKVAGFNLLMTLRLWSS TCR beta: EDLKNVFPPEVAVFEPSEAEISHTQKATLVCLATGFYPDHVELSWWVNGKEVHSGVSTDPQPLKEQPALNDSRYCLSSRLRVSATFWQNPRNHFRCQVQFYGLSENDEWTQDRAKPVTQIVSAEAWGRADCGFTSESYQQGVLSATILYEILLGKATLYAVLVSALVLMAMVKRKDSRG	90.3%
